Here are results for 1 substance from article PMC9210659.

The target in this assay is C16-Pks13(S1533A) (Pks13(S1533A) loaded with a C16 chain on the AT catalytic serine) (Mycobacterium tuberculosis H37Rv) (UniProt I6X8D2). The assay can be described thus: SEC + other: SAXS.

“C16-Pks13(S1533A) (Pks13(S1533A) loaded with a C16 chain on the AT catalytic serine) (from UniProt I6X8D2 1-1733) (enzyme)”: the percent dimer was determined as 60% and the stoichiometry N was found to be 2.

The stoichiometry N is a count of units in the complex or per binding partner.
